From patent US20250313631A1 (HUMMINGBIRD BIOSCIENCE PTE, published 2025)
Blank lines part the entries; values can stand above or below the binder they belong to.

Key:
[1] = target: T1, recombinant human VISTA (His-tagged) (human, UniProt Q9H7M9 33-194); test: BLI (Octet QK384): His-tagged human VISTA on anti-Penta-HIS tips, V4 as analyte; value of the line above the sensorgram, which differs from the table below it
T1 construct: bought soluble protein (Sino Biological); also called hVISTA; human VISTA polypeptide
Description: (§1) All measurements were performed at 25° C. with agitation at 1000 rpm. Kinetic measurements for antigen binding were performed by loading anti-VISTA antibody at different concentrations (indicated in the Figures) for 120 s, followed by a 120 s dissociation time by transferring the biosensors into assay buffer containing wells. Sensograms were referenced for buffer effects and then fitted using the Octet QK384 user software (Pall ForteBio, USA).
(§2) Kinetic responses were subjected to a global fitting using a one site binding model to obtain values for association (kon), dissociation (koff) rate constants and the equilibrium dissociation constant (KD). Only curves that could be reliably fitted with the software (R²>0.90) were included in the analysis.

[2] = target: T2, recombinant cynomolgus macaque VISTA (His-tagged) (cynomolgus macaque, UniProt A0A7N9IB00 33-194); test: BLI (Octet QK384), His-tagged VISTA on anti-Penta-HIS tips, antibody as analyte
T2 construct: also called cyno VISTA; cynomolgus monkey VISTA
Description: as §1, §2

[3] = target: T3, recombinant mouse VISTA (His-tagged) (mouse, UniProt Q9D659 33-191); test: as above
T3 construct: also called murine VISTA; mVISTA
T3 sequence (looked up): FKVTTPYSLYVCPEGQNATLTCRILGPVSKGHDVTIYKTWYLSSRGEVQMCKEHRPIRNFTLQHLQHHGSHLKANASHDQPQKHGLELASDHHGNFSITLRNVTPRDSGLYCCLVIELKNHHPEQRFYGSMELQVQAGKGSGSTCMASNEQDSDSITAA
Description: as §1, §2

human B7H3 [4] = target: T4, human B7H3 (human, UniProt Q5ZPR3 29-461, limits assumed); test: ELISA, target protein coated, A450 against log M of antibody
T4 construct: also called CD276
T4 sequence (looked up): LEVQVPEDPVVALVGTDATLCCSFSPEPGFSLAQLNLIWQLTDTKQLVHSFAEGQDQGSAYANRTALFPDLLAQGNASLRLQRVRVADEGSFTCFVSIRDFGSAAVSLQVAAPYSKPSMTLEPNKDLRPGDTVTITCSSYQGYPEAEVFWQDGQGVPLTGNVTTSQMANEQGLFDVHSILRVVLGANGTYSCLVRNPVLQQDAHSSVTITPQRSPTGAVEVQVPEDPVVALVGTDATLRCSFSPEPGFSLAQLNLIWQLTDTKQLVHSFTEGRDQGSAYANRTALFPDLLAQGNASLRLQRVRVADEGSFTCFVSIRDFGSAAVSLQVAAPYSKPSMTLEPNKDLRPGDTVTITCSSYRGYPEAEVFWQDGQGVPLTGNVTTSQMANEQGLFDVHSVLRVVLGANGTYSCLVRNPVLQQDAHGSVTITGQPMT

[5] = target: T1, recombinant human VISTA (His-tagged); test: as above
human CTLA4 [6] = target: T5, human CTLA4 (human, UniProt P16410 36-162); test: as above
human B7H3 [7] = target: T4, human B7H3; test: ELISA, plate coated with the antigen
human B7H6 = target: T6, human B7H6 (human, UniProt Q68D85 25-262); test: ELISA, plate coated with the antigen
T6 construct: also called NCR3LG1
T6 sequence (looked up): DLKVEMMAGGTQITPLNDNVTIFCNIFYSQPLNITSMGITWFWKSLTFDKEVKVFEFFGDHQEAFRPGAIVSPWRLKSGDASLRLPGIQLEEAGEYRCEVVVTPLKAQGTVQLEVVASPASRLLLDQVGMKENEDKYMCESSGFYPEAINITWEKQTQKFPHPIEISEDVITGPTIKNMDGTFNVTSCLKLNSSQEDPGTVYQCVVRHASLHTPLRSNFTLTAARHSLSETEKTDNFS

human B7H7 = target: T7, human B7H7 (human, UniProt Q9UM44 23-344); test: ELISA, plate coated with the antigen
T7 construct: also called HHLA2
T7 sequence (looked up): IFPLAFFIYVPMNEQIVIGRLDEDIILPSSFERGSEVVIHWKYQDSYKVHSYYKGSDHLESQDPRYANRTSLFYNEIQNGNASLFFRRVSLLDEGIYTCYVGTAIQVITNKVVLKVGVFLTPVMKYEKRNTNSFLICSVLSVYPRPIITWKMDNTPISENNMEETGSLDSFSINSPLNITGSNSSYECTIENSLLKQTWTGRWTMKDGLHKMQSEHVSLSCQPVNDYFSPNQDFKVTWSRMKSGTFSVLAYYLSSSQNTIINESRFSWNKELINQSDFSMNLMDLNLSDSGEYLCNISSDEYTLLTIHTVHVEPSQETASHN

human CTLA4 [8] = target: T5, human CTLA4; test: ELISA, plate coated with the antigen
[9] = target: T1, recombinant human VISTA (His-tagged); test: antigen-binding ELISA; HMBD-002 in F1, day 10 at 40°C
[10] = target: T1, recombinant human VISTA (His-tagged); test: antigen-binding ELISA; reference standard run with the day 0 samples; reference standard, run with the Day 0 samples
[11] = target: T1, recombinant human VISTA (His-tagged); test: antigen-binding ELISA; HMBD-002 in F9, day 20 at 40°C
[12] = target: T1, recombinant human VISTA (His-tagged); test: antigen-binding ELISA; HMBD-002 in F9, day 30 at 40°C
[13] = target: T1, recombinant human VISTA (His-tagged); test: antigen-binding ELISA; HMBD-002 in F2, day 10 at 40°C
[14] = target: T8, recombinant rat VISTA (His-tagged) (rat, UniProt A0ABK0L5H3 33-192); test: ELISA, VISTA-HIS protein coated; ELISA, rat VISTA-HIS
T8 sequence: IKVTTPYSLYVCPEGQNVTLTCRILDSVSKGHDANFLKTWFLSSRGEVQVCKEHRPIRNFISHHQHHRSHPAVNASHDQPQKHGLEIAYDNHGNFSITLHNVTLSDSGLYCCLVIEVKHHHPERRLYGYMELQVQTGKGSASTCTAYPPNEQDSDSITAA
Description: 384-well plates were coated with 1 μg/ml of target antigen diluted in PBS for 16 hrs at 4° C. […] After washing, plates were developed with colorimetric detection substrate 3,3′,5,5′-tetramethylbenzidine (Turbo-TMB; Pierce) for 10 min.

[15] = target: T1, recombinant human VISTA (His-tagged); test: antigen-binding ELISA; HMBD-002 10 mg/mL in F1, day 0

T5 sequence (P16410 36-162 limits assumed): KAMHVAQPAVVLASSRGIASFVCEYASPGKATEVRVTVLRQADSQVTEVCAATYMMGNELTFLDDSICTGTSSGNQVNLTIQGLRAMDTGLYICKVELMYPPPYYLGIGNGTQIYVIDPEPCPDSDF

koff [1]: < 4.54e-07 s⁻¹ | Kd [2]: < 0.001 nM | Kd [3]: 113 nM | EC50 (read off the curve) [5]: ~0.01 nM
B1: anti-VISTA clone 4M2-C12 IgG1 (antibody)
heavy: not shown
light: DIVITQTPAILSTSPGEKVTMTCRASSSVGYIHWYQQKPGSSPKPWIYATSNLASGVPARFSGSGSGTSNSLTITRVEAEDAATYYCQQWSSYPPITFGGGTKLEVKRTVAAPSVFIFPPSDEQLKSGTASVVCLLNNFYPREAKVQWKVDNALQSGNSQESVTEQDSKDSTYSLSSTLTLSKADYEKHKVYACEVTHQGLSSPVTKSFNRGEC
notes: mouse variable regions on human IgG1/kappa constant regions; also called V4; V4pr
binding result (human B7H3 [4]): no binding (tested: about 10^-7.5 M (log M axis)) | binding result (human CTLA4 [6]): no binding (tested: about 10^-7.5 M (log M axis))

binding result (human B7H3 [7]): no binding (tested: log -7.5 M) | binding result (human B7H6): no binding (tested: log -7.5 M) | binding result (human B7H7): no binding (tested: log -7.5 M) | binding result (human CTLA4 [8]): no binding (tested: log -7.5 M)
B2: anti-VISTA clone V4-C24 IgG1 (antibody, V domains shown)
VH: QVQLQESGPGLVKPSDTLSLTCTVSGYSITSDYTWNWIRQTPGKGLEWIGHITYSGSVSYNPSLRSRVTISRDTSKNQFSLKLSSVTAADTATYSCARALYYPWYFDVWGTGTTVTVSS
VL: EIVLTQSPATLSLSPGERATLSCRASSSVGYIHWYQQKPGQAPRPLIYTTSYRATGIPARFSGSGSGTDNTLTISSLEPEDSAVYYCQQWSSYPPITFGGGTKLEVKR

EC50 [9]: 0.0306 nM | EC50 [10]: 0.0307 nM | EC50 [11]: 0.0223 nM | EC50 [12]: 0.0237 nM | EC50 [13]: 0.0322 nM | EC50 [14]: 0.00669 nM | EC50 [15]: 0.04 nM
B3: V4-C26 hIgG4 (antibody)
heavy: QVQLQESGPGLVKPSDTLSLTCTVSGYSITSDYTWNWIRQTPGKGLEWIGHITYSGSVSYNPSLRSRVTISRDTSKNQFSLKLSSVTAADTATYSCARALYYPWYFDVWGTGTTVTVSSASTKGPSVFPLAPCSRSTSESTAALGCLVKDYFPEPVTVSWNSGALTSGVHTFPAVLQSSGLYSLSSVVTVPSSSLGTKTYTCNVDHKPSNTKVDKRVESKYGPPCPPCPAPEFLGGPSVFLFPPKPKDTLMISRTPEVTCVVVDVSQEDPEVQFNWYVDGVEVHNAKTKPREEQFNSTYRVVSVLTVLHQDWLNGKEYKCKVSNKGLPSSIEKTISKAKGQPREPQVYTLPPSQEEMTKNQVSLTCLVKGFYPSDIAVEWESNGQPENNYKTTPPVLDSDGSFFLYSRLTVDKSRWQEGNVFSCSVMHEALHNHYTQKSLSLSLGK
light: EIVLTQSPATLSLSPGERATLSCRASSSVGYIHWYQQKPGQAPRPIIYTTSNRATGIPARFSGSGSGTDNTLTISSLEPEDSAVYYCQQWSSYPPITFGGGTKLEVKRTVAAPSVFIFPPSDEQLKSGTASVVCLLNNFYPREAKVQWKVDNALQSGNSQESVTEQDSKDSTYSLSSTLTLSKADYEKHKVYACEVTHQGLSSPVTKSFNRGEC
notes: human IgG4 (S228P)/kappa format; also called HMBD-002; HMBD-002-V4C26
